We go through two molecules from patent US11766479 (ZHEJIANG SHIMAI PHARMACEUTICAL, dated 2023).

The EC50 is the concentration at which the effect is half-maximal.

Assay [1] addresses T1, recombinant human ENPP3 (full-length extracellular domain) (human, UniProt O14638 31-875).
T1 construct: extracellular domain; Bought protein; also called Human ENPP3 (CD203c) protein
T1 sequence (looked up): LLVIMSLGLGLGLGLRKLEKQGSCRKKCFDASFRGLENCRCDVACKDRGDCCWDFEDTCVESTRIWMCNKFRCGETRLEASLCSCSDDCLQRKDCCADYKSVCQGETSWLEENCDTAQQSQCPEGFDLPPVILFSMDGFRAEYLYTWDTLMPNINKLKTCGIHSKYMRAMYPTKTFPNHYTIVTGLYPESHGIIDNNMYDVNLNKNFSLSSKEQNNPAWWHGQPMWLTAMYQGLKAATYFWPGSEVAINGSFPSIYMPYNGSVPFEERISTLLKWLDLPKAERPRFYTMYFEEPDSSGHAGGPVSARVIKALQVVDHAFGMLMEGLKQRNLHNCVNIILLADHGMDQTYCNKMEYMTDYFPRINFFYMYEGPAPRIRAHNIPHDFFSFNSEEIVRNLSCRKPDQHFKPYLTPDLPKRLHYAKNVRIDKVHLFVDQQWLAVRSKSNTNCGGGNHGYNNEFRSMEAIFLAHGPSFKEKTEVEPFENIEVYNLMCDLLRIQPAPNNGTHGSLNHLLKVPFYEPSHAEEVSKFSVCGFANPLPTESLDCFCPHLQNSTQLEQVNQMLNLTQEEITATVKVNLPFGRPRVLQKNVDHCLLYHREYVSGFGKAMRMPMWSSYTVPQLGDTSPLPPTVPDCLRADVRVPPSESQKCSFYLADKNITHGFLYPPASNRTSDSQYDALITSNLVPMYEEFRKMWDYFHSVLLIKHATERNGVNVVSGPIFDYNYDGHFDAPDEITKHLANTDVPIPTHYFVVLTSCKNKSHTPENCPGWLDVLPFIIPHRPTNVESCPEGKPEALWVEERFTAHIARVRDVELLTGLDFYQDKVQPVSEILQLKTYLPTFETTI
The experiment in a line: ELISA, recombinant human ENPP3 coated at 200 ng per well, detection with HRP anti-FLAG. Here is the method: The hexahistidine (HHHHHH, SEQ ID NO: 35)-tagged 3A10 Fab was expressed in *E. coli* strain HB2151 and purified from the soluble fraction of periplasm by using the Ni-NTA resin. Then ELISA was performed by using standard protocols to measure binding affinity to recombinant human ENPP3 (full-length extracellular domain). Briefly, the recombinant human ENPP3 (ACROBiosystems) was coated on Corning EIA/RIA high-binding 96-well plates (Corning Inc.) at 200 ng per well overnight at 4° C. and blocked with 3% nonfat milk in PBS (pH7.4). Five-fold serially diluted antibodies were added accordingly and then incubated at room temperature for 2 h. The plates were washed with PBS containing 0.05% TWEEN® 20. Bound antibodies were detected by HRP-conjugated anti-FLAG tag antibody (Sino Biological). The assay was developed at room temperature with TMB substrate (Solarbio) and OD value was measured at 450 nm with a microplate reader.
Background: An ELISA detects its analyte on a solid surface through an enzyme-linked reagent.

For assay [2], the target named is T1, recombinant human ENPP3 (full-length …). Description: ELISA, recombinant human ENPP3 coated at 100 ng per well, detection with anti-human IgG Fc-peroxidase. Here is the method:
ELISA was performed according to standard protocols, to determine binding affinity of anti-ENPP3 3A10 mAb to recombinant human ENPP3 (AcroBiosystems). Briefly, recombinant human ENPP3 was coated on Corning EIA/RIA high-binding 96-well plates (Corning Inc.) at 100 ng per well overnight at 4° C. and blocked with 3% nonfat milk in PBS (pH7.4). Five-fold serially diluted antibodies were added and incubated at 37° C. for 1 h. The plates were washed with PBS containing 0.05% TWEEN® 20. Bound antibodies were detected by anti-human IgG (Fc-specific)-peroxidase antibody (Sigma). The assay was developed at room temperature with TMB substrate (Solarbio) and monitored at 450 nm with a microplate reader. The half-maximal binding ($EC50$) was calculated by fitting the data to the Langmuir adsorption isotherm.

B1: hexahistidine-tagged 3A10 Fab (Fab, V domains shown)
VH: EVQLVESGGGLVKPGGSLRLSCAASGFTFSNAWMSWVRQAPGKGLEWVSYISSSGSTIYYADSVKGRFTISRDNAKNSLYLQMNSLRAEDTAVYYCARLAGPYYFDYWGQGTLVTVSS
VL: QSVVTQPPSVSAAPGQKVTISCSGSSSNIGNNYVSWYQQLPGTAPKLLIYDNNKRPSGIPDRFSGSKSGTSATLGIDGLRTGDEAEYFCGVWDSSLRAELFAGGTKVTVL
notes: Human Fab from a phage library with a lambda light chain, made in E. coli HB2151; also called Fab 3A10; anti-ENPP3 Fab 3A10
Turning to B1, in assay [1], the concentration for a half-maximal effect (EC50) was 9.17 nM.

B2: anti-ENPP3 3A10 mAb (antibody, human IgG1, lambda, V domains shown)
VH: EVQLVESGGGLVKPGGSLRLSCAASGFTFSNAWMSWVRQAPGKGLEWVSYISSSGSTIYYADSVKGRFTISRDNAKNSLYLQMNSLRAEDTAVYYCARLAGPYYFDYWGQGTLVTVSS
VL: QSVVTQPPSVSAAPGQKVTISCSGSSSNIGNNYVSWYQQLPGTAPKLLIYDNNKRPSGIPDRFSGSKSGTSATLGIDGLRTGDEAEYFCGVWDSSLRAELFAGGTKVTVLS
notes: Intact human IgG1 with wild type Fc and a lambda light chain, expressed in 293FS cells; also called anti-ENPP3 monoclonal antibody
For B2, the EC50 in assay [2] was found to be 0.107 nM.
